In one test the target is T1, murine HVEM (murine, UniProt Q80WM9 39-206, limits assumed).
T1 construct: also called Mouse
T1 sequence (looked up): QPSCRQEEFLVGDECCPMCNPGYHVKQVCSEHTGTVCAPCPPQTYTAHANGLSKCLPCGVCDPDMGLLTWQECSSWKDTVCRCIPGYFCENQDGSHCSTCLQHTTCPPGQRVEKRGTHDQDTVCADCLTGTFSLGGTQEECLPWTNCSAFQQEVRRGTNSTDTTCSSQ
The test can be described thus: ELISA. In general terms: In an ELISA, binding on a coated surface is turned into a signal by an enzyme label.

The next test concerns the target T2, cynomolgus monkey HVEM (cynomolgus monkey, UniProt A0A2K5W0R1 39-203).
T2 sequence: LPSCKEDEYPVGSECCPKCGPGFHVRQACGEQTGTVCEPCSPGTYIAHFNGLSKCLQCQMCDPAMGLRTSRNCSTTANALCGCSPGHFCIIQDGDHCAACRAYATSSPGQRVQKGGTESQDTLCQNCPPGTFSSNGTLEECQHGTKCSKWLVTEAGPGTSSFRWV
The test can be described thus: ELISA.

The next test addresses T3, human HVEM (human, UniProt Q92956 39-202, limits assumed).
T3 sequence (looked up): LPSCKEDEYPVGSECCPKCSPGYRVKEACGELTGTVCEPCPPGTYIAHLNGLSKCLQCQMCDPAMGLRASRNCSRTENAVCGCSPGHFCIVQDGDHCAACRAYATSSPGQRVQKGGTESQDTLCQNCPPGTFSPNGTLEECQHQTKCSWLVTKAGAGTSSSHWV
Briefly: ELISA.

The target of another test is T4, His-tagged human HVEM (human, UniProt Q92956 39-202, limits assumed).
T4 construct: Analyte of the BLI assay, 200 nM in PBS; not shown: His tag
T4 sequence (looked up): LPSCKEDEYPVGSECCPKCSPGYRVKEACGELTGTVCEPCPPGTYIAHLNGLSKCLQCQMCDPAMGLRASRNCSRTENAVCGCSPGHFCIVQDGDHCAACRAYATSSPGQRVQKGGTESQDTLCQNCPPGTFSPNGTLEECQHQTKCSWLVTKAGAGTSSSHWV
The test can be described thus: BLI OctetRed96, mAb captured, 200 nM His-HVEM. As for the experimental part:
Binding of antibodies to HVEM may also be determined by bio-layer interferometry (BLI) on an OctetRed96@ system (Sartorius). (See http://www.fortebio.com/bli_technology.html for general description of a BLI assay.) For this experiment, murine anti-human HVEM antibodies were captured from culture supernatant using anti-mouse IgG Fc capture and immobilized to dip and read biosensors. Sensors were then dipped into a solution of 200 nM His-tagged human HVEM in phosphate-buffered saline (PBS). Probes were dipped into PBS assay buffer and the dissociation rate (koff) was measured. The association rate (kₒₙ) and affinity (KD) were determined by curve fitting analysis.

B1: Ab_056 (H5S19-11A9B) (antibody, V domains shown)
VH: DVQLQESGPGLVNPSQSLSLTCTVTGYSITSDYAWNWIRQFPGNKLEWMGYISYSGNTGYNPSLKSRISITRDTSKNQFFLQLNSVTSEDTATYYCARWGLRIDYWGQGTTLTVSS
VL: DIKMTQSPSSMYASLGESVTITCKASQDINSYLSWFQQKPGKSPKTLIYRANRLVDGVPSRFSGSGSGQDYSLTISSLEFEDMGIYYCLQYDEFPFTFGSGTKLEMK
notes: also called Ab_56
Take B1: the ELISA signal with murine HVEM was 0.043; with cynomolgus monkey HVEM, 0.06.

B2: Ab_086 (H5S20-56A25A) (antibody, V domains shown)
VH: EVKLVESGGGLVKPGGSLKLSCAASGFTFSSYGMSWVRQTPEKRLEWVATISGGGSYTFYPDSVKGRFTISRDNAKNNLYLQVSSLRSEDTALYYCIYDGSYWGQGTLVTVSA
VL: not shown
notes: also called Ab_86
Turning to B2, the ELISA signal was determined as 0.044 with murine HVEM and 0.065 with cynomolgus monkey HVEM.

B3: Ab_049 (H5S19-25A24A) (antibody, V domains shown)
VH: QVQLQQSGAELMKPGASVKISCKATGYTFSSYWIEWVKQRPGHGLEWIGEILPGSGSTNYNEKFKGKATFTADTSSNTAYMQLSSLTSEDSAVYYCARYPRWGKIDYWGQGTTLTVSS
VL: DIVMTQAAFSNPVTLGTSASISCRSSKSLLHSNGITYLYWYLQKPGQSPQLLIYQMSNLASGVPDRFSSSGSGTDFTLRISRVEAEDVGVYYCAQNLELPYTFGGGTKLEIK
notes: also called Ab_49
For the molecule B3, the ELISA signal came to 0.044 with murine HVEM and 0.065 with cynomolgus monkey HVEM.

B4: Ab_020 (H5S14-22A20A) (antibody, V domains shown)
VH: EVQLQQSGPELVKPGASVKMSCKASGYTFTSYVMHWVKQKPGQGLEWIGYINPYNDGTKYNEKFKGKATLTSDKSSSTAYMELSSLTSEDSAVYYCARGIITTVIEPILYAMDYWGQGTSVTVSS
VL: NIVLTQSPASLAVSLGQRATISCRASESVDSYGNSFMHWYQQKPGQPPKLLIYLASNLESGVPARFSGSGSRTDFTLTIDPVEADDAATYYCQQNNEDPYTFGGGTKLEIK
notes: also called Ab_20
As to B4, the results for the ELISA signal with murine HVEM, with human HVEM and with cynomolgus monkey HVEM were 0.043, 0.049 and 0.064, respectively.

B5: Ab_007 (H5S14-6A6A) (antibody, V domains shown)
VH: EVKLVESGGGLVQPGGSLRLSCATSGFTFTDYYMSWVRQTPGKALEWLGFIRNQANAYTTEYSVSVKGRFTISRDNSQSILYLQMNTLRVEDSATYYCARVPDYWGQGTTLTVSS
VL: DIQMTQSPASQSASLGESVTITCLASQTIGTWLAWYQQKPGKSPQLLIYAATSLADGVPSRFSGSGSGTKFSFKISSLQAEDFVSYYCQQLHSTPYTFGGGTKLEIK
notes: also called Ab_7
B5: the results for the ELISA signal with murine HVEM, with human HVEM and with cynomolgus monkey HVEM were 0.042, 2.56 and 0.739, respectively.

B6: Ab_002 (H5S14-2A2A) (antibody, V domains shown)
VH: QVQLQQPGAELVKPGTSVKMSCKASGYTFTSYWMHWVKQRPGQGLEWIGDIYPGSDSTNYNEKFKSKATLTVDTSSSTAYMQLSSLTSEDSAVYYCARSGYYGSYLDYWGQGTTLTVSS
VL: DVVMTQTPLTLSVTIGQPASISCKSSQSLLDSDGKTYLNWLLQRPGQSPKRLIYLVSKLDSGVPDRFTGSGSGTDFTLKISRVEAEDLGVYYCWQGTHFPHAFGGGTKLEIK
notes: also called Ab_2
On to B6, for which the ELISA signal with murine HVEM stood at 0.043; with human HVEM it was 2.8; in the test with cynomolgus monkey HVEM, 1.98.

B7: Ab_003 (H5S14-3A3A) (antibody, V domains shown)
VH: QIQLVQSGPELKKPGETVKISCKASGYTFTNYGVNWVKQAPGKDLKWMGWINTYTGEPTYADDFKGRFAFSLETSASTAYLQINNLKNEDMATYFCTSRSWVLWGQGTLVTVSA
VL: QIVLTQSPAIMSASLGEEITLTCSASSSVSYMQWYQQKSGTSPKLLIYSTSNLASGVPSRFSGSGSGTFYSLTISSVEAEDAADYYCHQWSSYPTFGGGTELEI
notes: also called Ab_3
With B7, the results for the ELISA signal with murine HVEM and with cynomolgus monkey HVEM were 0.051 and 2.29, respectively.

B8: Ab_015 (H5S14-16A13A) (antibody, V domains shown)
VH: EVQLVESGGGLVKPGGSLKLSCAASGFTFSDYYMYWVRQTPEKRLEWVATISDGGSYTYYPDSVKGRFTISRDNAKNNLYLQMSSLKSEDTAMYYCARDGNYYAMDYWGQGTSVTVSS
VL: DVLMTQTPLSLPVSLGDQASISCRSSQSIVHSNGNTYLEWYLQKPGQSPKLLIYKVSNRFSGVPDRFSGSGSGTDFTLKISRVEAEDLGVYYCFQGSHVPWTFGGGTKLEIK
notes: also called Ab_15
As for B8, the figures for the ELISA signal in the test with murine HVEM, in the test with human HVEM and with cynomolgus monkey HVEM were 0.042, 0.045 and 0.058, respectively.

B9: Ab_057 (H5S19-5A7A) (antibody, V domains shown)
VH: DVKLVESGGGLVKPGGSLKLSCAASGFTFSSYTMSWVRQTPEKRLEWVATISSGGSYTYYPDSVKGRFTISRDNAKNTLYLQMSSLKSEDTAMYYCTRGDDYGFDYWGQGTTLTVSS
VL: DVLMTQTPLSLPVSLGDQASISCRSSQSIVHSNGNTYLEWYLQKPGQSPKLLIYKVSNRFSGVPDRFSGSGSGTDFTLKISRVEAEDLGVYYCFQGSHVPWTFGGGTKLEIK
notes: also called Ab_57
As to B9, the ELISA signal came to 0.045 with murine HVEM and 1.06 in the test with cynomolgus monkey HVEM.

B10: Ab_044 (H5S15-30A26A) (antibody, V domains shown)
VH: QVQLQQPGAELVKPGAPVKLSCKASGYTFTSYWMNWVKQRPGRGLEWIGRIDPSDSETHYNQKFKDKATLTVDKSSSTAYIQLSSLTSEDSAVYYCAREYYGNHFDYWGQGTTLTVSS
VL: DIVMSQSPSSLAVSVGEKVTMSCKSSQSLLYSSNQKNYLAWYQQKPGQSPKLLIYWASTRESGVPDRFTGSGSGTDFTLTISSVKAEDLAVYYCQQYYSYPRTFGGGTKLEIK
notes: also called Ab_44
Turning to B10, in the test with His-tagged human HVEM, binding was characterised by a dissociation constant (Kd) of 1.97 nM, the koff came out at 0.00605 s⁻¹ and the kon came to 3.08e+06 M⁻¹ s⁻¹. This molecule also yielded an ELISA signal with human HVEM of 2.87.

B11: Ab_059 (H5S19-3B10B) (antibody, V domains shown)
VH: QIQLVQSGPELKKPGETVKISCKASGYTFTNFGVNWVKQAPGKGLKWMGWINTYTGEPTYADDFKGRFAFSLETSASTAYLRINNLKNEDTATYFCARSFYKNYAFWGQGTILTVSS
VL: QIVLTQSPAIMSASPGEKVTLTCSASSSVDSSYLFWYQQKPGSSPKLWIYSTSNLASGVPARFSGSGSGTSYSLTISSMEAEDAASYFCHQWSSYPWTFGGGTILEI
notes: also called Ab_59
For the molecule B11, the ELISA signal was 0.043 in the test with murine HVEM and 0.462 with human HVEM.

B12: Ab_018 (H5S14-21A19A) (antibody, V domains shown)
VH: QVQLQQPGSELVRPGASVKLSCKASGYTFTSYWMHWVKQRPGQGLEWIGNIYPGSGSTNYDEKFKSKATLTVDTSSSTAYMQLSSLTSEDSAVYYCTIYDGYYWGQGTLVTVSA
VL: DIQMTQSPASLSVSVGETVTITCRASENIYSNLAWYQQKQGKSPQLLVYAATNLADGVPSRFSGSGSGTQYSLKINSLQSEDFGSYYCQHFWGTPRTFGGGTKLEIK
notes: the values of that row are written under this molecule; also called Ab_18; Ab_018 and Ab_019
On to B12, for which the ELISA signal in the test with murine HVEM was 0.043; with cynomolgus monkey HVEM, 0.059.

B13: Ab_084 (H5S20-51A40A) (antibody, V domains shown)
VH: QVQLKQSGPGLVQPSQSLSITCTVSGFSLTSYGVHWVRQSPGKGLEWLGVIWRGGSTDYNAAFMSRLSITKDNSKSQVFFKMNSLQADDTAIYYCAKNRGYGEGYYAMDYWGQGTSVTVSS
VL: DIVMTQSQKFMSTSVGDRVSVTCKASQNVGTNVAWYQQKPGQSPKALIYSASYRYSGVPDRFTGSGSGTDFTLTISNVQSEDLAEYFCQQYNSYPLTFGAGTKLELK
notes: also called Ab_84
For B13, the ELISA signal was 0.043 with murine HVEM and 0.061 with cynomolgus monkey HVEM.

B14: Ab_022 (H5S14-23A21A) (antibody, V domains shown)
VH: LVKTGASVKISCKASGYSFTGYYMHWVKQSHGKSLEWIGYISCYNGATSYNQKFKGKATFTVDTSSSTAYMQFNSLTSEDSAVYYCARTYYYGSSYGAMDYWGQGTSVTVSS
VL: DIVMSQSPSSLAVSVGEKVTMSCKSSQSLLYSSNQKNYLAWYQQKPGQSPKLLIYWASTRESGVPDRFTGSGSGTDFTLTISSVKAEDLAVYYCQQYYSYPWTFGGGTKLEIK
notes: also called Ab_22
As to B14, the ELISA signal was found to be 0.157 in the test with human HVEM and 0.165 with cynomolgus monkey HVEM.

B15: Ab_016 (H5S14-17A15A) (antibody, V domains shown)
VH: QVQLQQSGAELVRPGTSVKMSCKAAGYTFTNYWIGWVKQRPGHGLEWIGDIYPGGGYTNYNEKFKGKATLTADTSSSTAYMQLSSLTSEDSAIYYCARNGNSLDYWGQGTTLTVSS
VL: SIVMTQTPKFLLVSAGDRVTITCKASQSVSNDVAWYQQKPGQSPKLLIYYESNRYTGVPDRFTGSGYGTDFTFTISTVQAEDLAVYFCQQDYSSPWTFGGGTKLEIK
notes: also called Ab_16
On to B15, for which the ELISA signal worked out at 0.042 with murine HVEM, 0.047 in the test with human HVEM and 0.061 in the test with cynomolgus monkey HVEM.

B16: Ab_017 (H5S14-18A16A) (antibody, V domains shown)
VH: EVQLVETGGGLVQPKGSLKLSCAASGFTFNTNAMNWVRQAPGKGLEWVARIRSKSNNYATYYADSVKDRFTISRDDSQSMLYLQMNNLKTEDTAMYYCVREGGYGNYPYFDYWGQGTTLTVSS
VL: SIVMTQTPKFLLVSAGDRVTITCKASQSVSNDVAWYQQKPGQSPKLLIYYASNRYTGVPDRFTGSGYGTDFTFTISTVQAEDLAVYFCQQDYSSPWTFGGGTKLEIK
notes: also called Ab_17
With B16, the ELISA signal with murine HVEM was determined as 0.044; with human HVEM, 0.051; in the test with cynomolgus monkey HVEM, 0.06.

B17: Ab_014 (H5S14-15A12A) (antibody, V domains shown)
VH: QVQLKQSGPGLVQPSQSLSITCTVSGFSLTSYGVHWVRQSPGKGLEWLGVIWSGGSTDYNAAFICRLSISKDSSKSQVFFKMNSLQADDTAMYYCARNLGGSWVDYWGQGTSVTVSS
VL: ETTVTQSPASLSVATGEKVTIRCITSTDIDDDMNWYQQKPGEPPKLLISEGNTLRPGVPSRFSSSGYGTDFVFTIENTLSEDVADYYCLQSDNMPYTFGGGTKLEIK
notes: also called Ab_14
Turning to B17, the ELISA signal in the test with murine HVEM turned out to be 0.049; in the test with human HVEM it was 0.05; with cynomolgus monkey HVEM, 0.064.

In general, Kd refers to the equilibrium constant for the complex coming apart. In general, koff refers to the rate constant with which the complex falls apart. In general, kon refers to the second-order rate constant of association.

For the origin of these results see patent US20240317871A1 (IMMUNOMIC THERAPEUTICS, published 2024).
